The source of these data is patent publication US20230062712A1 (SILVERBACK THERAPEUTICS, published 2023).

Experiment [1] addresses T1, His-tagged rat C-type lectin domain family 10 member A (CLEC10A) extracellular domain (rat) (UniProt P49301).
T1 sequence (looked up): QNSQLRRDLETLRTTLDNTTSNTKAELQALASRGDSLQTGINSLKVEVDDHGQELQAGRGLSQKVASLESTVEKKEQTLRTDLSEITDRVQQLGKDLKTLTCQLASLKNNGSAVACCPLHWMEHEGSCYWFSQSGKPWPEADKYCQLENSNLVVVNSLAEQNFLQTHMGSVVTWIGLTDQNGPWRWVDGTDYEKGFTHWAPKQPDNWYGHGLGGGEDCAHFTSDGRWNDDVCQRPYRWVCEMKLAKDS
Nature of the experiment: Octet, His-tagged rat CLEC10A ECD on Penta-His sensors, antibody at 25 µg/mL. (In general: Biolayer interferometry detects binding as a change in optical thickness at a sensor tip.)

Experiment [2] concerns the target T1, His-tagged rat C-type lectin domain family 10 member A (CLEC10A) extracellular domain (rat). In words: Octet, biotinylated mAb on streptavidin sensors, monomeric rat CLEC10A ECD from 200 nM in 3x dilutions, bivalent binding model.
The target of a further experiment is T2, rat ASGR1 on CHO-S cells (rat, UniProt P02706 1-284).
T2 construct: whole, on cells
T2 sequence (looked up): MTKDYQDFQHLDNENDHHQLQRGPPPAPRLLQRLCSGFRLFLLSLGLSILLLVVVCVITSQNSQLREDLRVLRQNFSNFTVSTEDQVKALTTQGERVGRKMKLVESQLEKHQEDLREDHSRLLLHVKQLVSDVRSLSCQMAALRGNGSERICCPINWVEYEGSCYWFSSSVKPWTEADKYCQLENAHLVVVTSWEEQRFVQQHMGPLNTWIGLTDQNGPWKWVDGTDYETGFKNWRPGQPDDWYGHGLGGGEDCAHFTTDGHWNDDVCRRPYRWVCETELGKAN
In words: flow cytometry (Guava) on CHO-S cells transfected with rat ASGR1. As for the experimental part: Anti-human ASGR1 antibodies of this disclosure were examined for cross-reactivity with Cynomolgus macaque and rat ASGR1. Briefly, sequence encoding Cynomolgus macaque or rat ASGR1 was transiently transfected into CHO-S cells. Transfected cells were before performing cell binding assay. A total of about 1.5×10⁴ transfected cells/well were added to 96-well V-bottom assay plate, incubated at 37° C., 5% CO2 for 48-72 hours, and then washed with culture medium before adding 100 μl of each ASGR1 antibody at different concentrations starting from 100 nM and 3-fold dilutions to a total of eight wells. The cells with antibody were incubated for 40 minutes at 4° C., then washed three times with 200 μl of fresh culture medium. To each well was added 50 μl PE conjugated goat anti-human Fc (SouthernBiotech) at 1:200 dilution in culture medium and then incubated at 4° C. for 20 minutes. After washing the plate once, the treated cells were resuspended in 200 μl culture medium and then the stained cells were analyzed on GUAVA® using Incyte software.
(In general: Flow cytometry measures light scatter and fluorescence of single cells or particles in a stream.)

B1: ASGR1 mAb-B (antibody, from another filing, V domains shown)
VH: EVQLVESGGGLVKPGGSLRLSCAASGFTFSSYSMNWVRQAPGKGLEWVSSISGSSSYIYYADSVKGRFTISRDNAKNSLYLQMNSLRAEDTAVYFCARGGSRGFDPWGQGTLVTVSS
VL: DIQMTQSPSSLSASVGDRVTITCRASQSITSYLNWYQQKPGKAPKLLIYTASSLQSGVPSRFSGSGSGTDFTLTISSLQPEDFATYYCQQSHSFPFTFGPGTKVDIK
Regarding B1, the Response (nm) in experiment [1] worked out at 0.598 nm. The molecule further displayed a Kd in experiment [2] of 28.1 nM.

B2: hzL4L-7 (antibody, V domains shown)
VH: QVQLQESGPGLVKPSQTLSLTCTVSGYSISSDYAWNWIRQHPGKGLEWIGYISYSGSTRYNPSLKSRVTITRDTSKNQFSLKLSSVTAADTAVYYCARRYRYDEGYGMDYWGQGTTVTVSS
VL: DIQMTQSPSSLSASVGDRVTITCRASENIYSNLAWYQQKPGKAPKLLIYAATNLADGVPSRFSGSGSGTDFTLTISSLQPEDFATYYCQHFWGTPPWTFGGGTKVEIK
notes: IgG1 and kappa constant regions
Regarding B2, the binding result with rat ASGR1 on CHO-S cells is “no binding (tested: starting from 100 nM)”.

B3: hzH8K-1 (antibody, V domains shown)
VH: QVQLQESGPGLVKPSQTLSLTCTVSGGSISSDYAWNWIRQHPGKGLEWIGYRSYRGSTSYNPSLKSRVTISVDTSKNQFSLKLSSVTAADTAVYYCARRGYYGSSSHWYFDVWGQGTTVTVSS
VL: DIQMTQSPSSLSASVGDRVTITCRASENIYSYLAWYQQKPGKAPKLLIYNAKTLAEGVPSRFSGSGSGTDFTLTISSLQPEDFATYYCQHHYGTPLTFGGGTKVEIK
notes: as for B2
On to B3, for which, in the experiment with rat ASGR1 on CHO-S cells, the binding result is on record as “no binding (tested: starting from 100 nM)”.
